The experiment concerns the target Fas (Apo-1, CD95) (human) (UniProt P25445). The experiment in a line: cell-based or functional assay.
Sequence of UniProt P25445 (P25445 26-335): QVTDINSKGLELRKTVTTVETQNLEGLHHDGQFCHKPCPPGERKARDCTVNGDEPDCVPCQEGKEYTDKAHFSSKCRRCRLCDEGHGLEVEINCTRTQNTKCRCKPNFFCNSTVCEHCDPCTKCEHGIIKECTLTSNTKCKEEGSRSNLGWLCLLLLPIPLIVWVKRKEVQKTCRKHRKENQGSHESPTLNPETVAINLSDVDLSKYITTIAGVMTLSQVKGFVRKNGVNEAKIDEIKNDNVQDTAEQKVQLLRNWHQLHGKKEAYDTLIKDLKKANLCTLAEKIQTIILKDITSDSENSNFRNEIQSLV

Substance “agonistic anti-Fas monoclonal antibodies (clone CH-11: Coulter-Immunotech, Marseille, France) (antibody)” displayed a % INHIBITION of Jurkat human leukemia T cell proliferation (MTT), 0.02 µg/ml antibody, no sequence of 16%; a % INHIBITION of Jurkat human leukemia T cell proliferation (MTT), 0.2 µg/ml antibody, no sequence of 33%; a % INHIBITION of UMUC-3 bladder cancer cell proliferation (MTT), 0.02 µg/ml antibody, no sequence of 7%; a % INHIBITION of UMUC-3 bladder cancer cell proliferation (MTT), 0.2 µg/ml antibody, no sequence of 17%.

These data come from patent publication EP1313853B1.
